From paper PMC8160216

Biological target: human M3R-mCit (muscarinic M3 receptor, C-terminally mCitrine-labeled) (human) (UniProt P20309)
Test: FRET or BRET; single permeabilized HEK293T cells (saponin), nucleotides washed out; FRET between M3R-mCitrine and mTurquoise2-Gγ2 of the co-expressed G protein; 10 µM acetylcholine for 1 min, 2 min washout, twice; final GTPγS to induce full dissociation; stability of the complex as AUC of the normalized trace after agonist withdrawal; room temperature, internal buffer pH 7.35

UniProt P20309, sequence (P20309 whole entry): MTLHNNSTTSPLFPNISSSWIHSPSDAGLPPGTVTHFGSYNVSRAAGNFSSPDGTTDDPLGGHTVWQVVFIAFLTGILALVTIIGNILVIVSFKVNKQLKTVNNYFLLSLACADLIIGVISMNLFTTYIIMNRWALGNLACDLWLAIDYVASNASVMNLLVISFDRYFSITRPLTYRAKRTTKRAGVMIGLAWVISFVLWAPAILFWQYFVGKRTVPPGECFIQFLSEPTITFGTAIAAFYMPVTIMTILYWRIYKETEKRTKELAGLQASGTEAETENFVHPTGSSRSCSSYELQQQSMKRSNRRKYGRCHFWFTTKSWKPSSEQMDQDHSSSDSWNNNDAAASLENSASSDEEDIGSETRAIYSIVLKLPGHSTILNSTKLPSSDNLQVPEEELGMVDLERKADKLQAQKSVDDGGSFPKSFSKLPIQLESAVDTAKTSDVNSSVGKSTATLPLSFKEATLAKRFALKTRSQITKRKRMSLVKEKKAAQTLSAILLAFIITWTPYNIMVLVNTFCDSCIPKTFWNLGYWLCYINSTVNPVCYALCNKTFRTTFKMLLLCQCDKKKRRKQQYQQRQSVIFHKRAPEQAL

Row | Substance | reduction of the AUC of dissociation relative to Gq [%] | faster dissociation relative to Gq [%]
1 | GqoC11 (Gαq chimera with the C-terminal part of the α5 helix of Gαo, with Gβ1 and mTurq2-Gγ2) (from UniProt P21279 1-348; P59215 344-354; P62873 1-340; P63212 1-71) (complex) | < 5 | 
2 | GqoN + C11 (Gαq chimera with the N-terminus and the last 11 amino acids of Gαo, with Gβ1 and mTurq2-Gγ2) (from UniProt P59215 344-354; P62873 1-340; P63212 1-71) (complex) |  | < 10
